From US20220133863A1 (SHIRE HUMAN GENETIC THERAPIES, published 2022)

B1: Naglu-Kif (enzyme)
chain: DEAREAAAVRALVARLLGPGPAADFSVSVERALAAKPGLDTYSLGGGGAARVRVRGSTGVAAAAGLHRYLRDFCGCHVAWSGSQLRLPRPLPAVPGELTEATPNRYRYYQNVCTQSYSFVWWDWARWEREIDWMALNGINLALAWSGQEAIWQRVYLALGLTQAEINEFFTGPAFLAWGRMGNLHTWDGPLPPSWHIKQLYLQHRVLDQMRSFGMTPVLPAFAGHVPEAVTRVFPQVNVTKMGSWGHFNCSYSCSFLLAPEDPIFPIIGSLFLRELIKEFGTDHIYGADTFNEMQPPSSEPSYLAAATTAVYEAMTAVDTEAVWLLQGWLFQHQPQFWGPAQIRAVLGAVPRGRLLVLDLFAESQPVYTRTASFQGQPFIWCMLHNFGGNHGLFGALEAVNGGPEAARLFPNSTMVGTGMAPEGISQNEVVYSLMAELGWRKDPVPDLAAWVTSFAARRYGVSHPDAGAAWRLLLRSVYNCSGEACRGHNRSPLVRRPSLQMNTSIWYNRSDVFEAWRLLLTSAPSLATSPAFRYDLLDLTRQAVQELVSLYYEEARSAYLSKELASLLRAGGVLAYELLPALDEVLASDSRFLLGSWLEQARAAAVSEAEADFYEQNSRYQLTLWGPEGNILDYANKQLAGLVANYYTPRWRLFLEALVDSVAQGIPFQQHQFDKNVFQLEQAFVLSKQRYPSQPRGDTVDLAKKIFLKYYPRWVAGSW
modifications: mostly high mannose glycans (produced with Kifunensine in the medium); N-glycans at N261, N272, N435, N503, N526 and N532 (precursor numbering)
notes: This is the protein that was crystallised (2.4 A)
B2: recombinant human Naglu (enzyme)
chain: B1 chain
modifications: glycosylated; lacks mannose-6-phosphate glycan
notes: also called rhNaglu; alpha-N-acetyl-glucosaminidase
B3: recombinant Naglu-IGFII fusion protein (enzyme)
chain: DEAREAAAVRALVARLLGPGPAADFSVSVERALAAKPGLDTYSLGGGGAARVRVRGSTGVAAAAGLHRYLRDFCGCHVAWSGSQLRLPRPLPAVPGELTEATPNRYRYYQNVCTQSYSFVWWDWARWEREIDWMALNGINLALAWSGQEAIWQRVYLALGLTQAEINEFFTGPAFLAWGRMGNLHTWDGPLPPSWHIKQLYLQHRVLDQMRSFGMTPVLPAFAGHVPEAVTRVFPQVNVTKMGSWGHFNCSYSCSFLLAPEDPIFPIIGSLFLRELIKEFGTDHIYGADTFNEMQPPSSEPSYLAAATTAVYEAMTAVDTEAVWLLQGWLFQHQPQFWGPAQIRAVLGAVPRGRLLVLDLFAESQPVYTRTASFQGQPFIWCMLHNFGGNHGLFGALEAVNGGPEAARLFPNSTMVGTGMAPEGISQNEVVYSLMAELGWRKDPVPDLAAWVTSFAARRYGVSHPDAGAAWRLLLRSVYNCSGEACRGHNRSPLVRRPSLQMNTSIWYNRSDVFEAWRLLLTSAPSLATSPAFRYDLLDLTRQAVQELVSLYYEEARSAYLSKELASLLRAGGVLAYELLPALDEVLASDSRFLLGSWLEQARAAAVSEAEADFYEQNSRYQLTLWGPEGNILDYANKQLAGLVANYYTPRWRLFLEALVDSVAQGIPFQQHQFDKNVFQLEQAFVLSKQRYPSQPRGDTVDLAKKIFLKYYPRWVAGSWGAPGGGGGAAAAAGGGGGGAPGGGGGAAAAAGGGGGGAPGGGGGAAAAAGGGGGGAPLCGGELVDTLQFVCGDRGFYFSRPASRVSRRSRGIVEECCFRSCDLALLETYCATPAKSE
modifications: glycosylated; negative for M6P glycosylation
notes: Secreted from HT1080 cells

Key:
[1] = target: the molecule itself; assay: X-ray crystal structure; self-association (homotrimer)
Experimental: The crystals (FIG. 8) were obtained from rhNaglu protein purified from culture media treated with mannosidase-I inhibitor, Kifunensine. Naglu Kif contains identical protein sequences as rhNaglu, but different glycosylation pattern. The crystals acquired of Naglu Kif were grown at pH=7.5 and the structure of Naglu Kif was solved at 2.4 Å resolution by X-ray crystallography. Naglu structure (FIG. 9) is identified as having three distinct domains, a N-terminal domain (Domain-I, aa 24-126) followed by a (a/(3)8 barrel domain containing the catalytic glutamates (Domain-II, aa 127-467) and an all helical C-terminal domain (Domain-III, aa 468-743). Similar domain structure has been observed for another Glycoside Hydrolase family-89 protein, cpGH89, a bacterial homolog of Naglu (Ficko-Blean E, et al., PNAS May 6, 2008 vol. 105 no. 18 6560-6565). The active site is at a cleft between domains II and III and the catalytic residues are identified as E316 and E446 located on domain II.

[2] = target: the molecule itself; assay: SEC-MALS and analytical ultracentrifugation; self-association (homotrimer)

Row | Protein | binding result [1] | binding result [2]
1 | B1 | binds | –
2 | B2 | – | binds
3 | B3 | – | binds
